Legend:
[1] = target: T1, enzyme SEQ ID NO: 6 (MDP decarboxylase) (Picrophilus torridus, UniProt Q6KZB1); test: Effect of ATP co-substrate and Mg2+ cofactor on IBN production by enzyme SEQ ID NO: 6; assay type: biochemical; conditions: 1 mg/ml enzyme, 72 h at 30° C.
T1 construct: 6-Histidine tag (N); made in house; host or cells: E. coli BL21(DE3)
T1 sequence (Q6KZB1 1-324): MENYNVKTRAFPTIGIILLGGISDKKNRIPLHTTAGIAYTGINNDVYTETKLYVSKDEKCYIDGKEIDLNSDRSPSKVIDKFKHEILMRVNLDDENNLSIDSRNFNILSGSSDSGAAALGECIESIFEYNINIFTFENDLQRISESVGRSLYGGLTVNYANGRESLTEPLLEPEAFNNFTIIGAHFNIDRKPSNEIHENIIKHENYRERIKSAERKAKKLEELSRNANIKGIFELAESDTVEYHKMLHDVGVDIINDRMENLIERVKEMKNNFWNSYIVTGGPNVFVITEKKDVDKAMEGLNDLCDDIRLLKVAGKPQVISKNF
Description: Effect of ATP Co-Substrate
(§1) 200 mM HIV (to be specified)
(§2) Incubation 72 h at 30° C.
Other molecules, and in particular those containing a phosphoanhydride bond, could also be efficient co-substrates for the enzyme.
Other ions, and in particular other divalent ions, could be used as cofactor in place of or in addition to Mg^2+ ions.

[2] = target: T2, MDP decarboxylase of Saccharomyces cerevisiae (Saccharomyces cerevisiae, UniProt P32377); test: Activity of protein extract (S. cerevisiae MDP decarboxylase) towards 3-hydroxy-3-methylbutyrate, with or without cofactor; assay type: biochemical
T2 construct: made in house; host or cells: E. coli BL21
T2 sequence (P32377 1-396): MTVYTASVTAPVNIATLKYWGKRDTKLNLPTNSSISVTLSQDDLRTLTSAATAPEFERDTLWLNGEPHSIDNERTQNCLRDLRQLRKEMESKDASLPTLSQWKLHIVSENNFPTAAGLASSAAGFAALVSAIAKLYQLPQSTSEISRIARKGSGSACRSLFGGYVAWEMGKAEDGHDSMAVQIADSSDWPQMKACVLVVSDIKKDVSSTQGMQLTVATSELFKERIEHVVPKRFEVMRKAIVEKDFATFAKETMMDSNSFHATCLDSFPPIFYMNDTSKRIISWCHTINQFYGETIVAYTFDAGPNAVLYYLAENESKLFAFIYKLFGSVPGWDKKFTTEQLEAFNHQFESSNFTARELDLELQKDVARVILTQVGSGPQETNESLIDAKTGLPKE
Description: The gene encoding MDP decarboxylase of Saccharomyces cerevisiae is synthesized from overlapping oligonucleotides and cloned in a pET plasmid (Novagen) allowing expression in bacteria. Said plasmid is then transformed by electroporation into bacterial strain BL21 (Invitrogen). The bacteria are streaked on a Petri dish containing ampicillin and incubated at 37° C. The next day, a bacterial colony is randomly selected and used to inoculate 50 ml of LB medium containing ampicillin. The culture is incubated for 24 h while shaking, after which the culture is centrifuged, the bacteria lysed by sonication, and a total protein extract prepared. An aliquot of the extract is loaded on an electrophoresis gel together with a protein extract from the same strain which has not been transformed, and with molecular weight markers. […]
Vials are sealed with a septum and crimped. […] After incubation, a gas syringe is used to collect the gas present in each vial, and the CO2 concentration in the samples is measured by gas chromatography. […] The presence of isobutylene in the gas sample from vial 6 is then measured by gas chromatography with infrared or flame ionization detection. […]
As in the previous example, isobutylene formation is measured by gas chromatography with infrared or flame ionization detection.

[3] = target: T1, enzyme SEQ ID NO: 6 (MDP decarboxylase); test: Substrate range test, Km of enzyme SEQ ID NO: 6 for HIV; assay type: biochemical; conditions: previously described conditions, incubation at 50° C., read-out: Km of the enzyme / affinity for HIV
Description: FIG. 13: IBN production according to concentration of HIV substrate.
A substrate range was tested in the previously described conditions, with incubation at 50° C. The Km of the enzyme is approximately 40 mM HIV.

[4] = Screening of a library of 63 MDP decarboxylase family enzymes for activity on HIV; assay type: biochemical; conditions: 200 mM HIV, 10 mM ATP, pH 5.5 or 7.0, 37° C. for 72 h, GC/MS
Description: A library of 63 genes encoding enzymes from the MDP decarboxylase family was obtained and tested for activity on HIV as substrate.
The genes encoding the mevalonate diphosphate (MDP) decarboxylase family EC 4.1.1.33 were cloned in the pET 25b vector (Novagen) in the case of eukaryotic genes and pET 22b (Novagen) for genes of prokaryotic origin, with a 6-Histidine tag at the N-terminal end immediately after the methionine initiation codon. Competent E. coli BL21(DE3) cells (Novagen) were transformed with these vectors by heat shock. The cells were grown with shaking (160 rpm) at 30° C. in TB medium containing 0.5 M sorbitol, 5 mM betain, 100 μg/ml ampicillin until reaching an OD at 600 nm comprised between 0.8 and 1. Isopropyl-B-D-thiogalactopyranoside (IPTG) was then added to a final concentration of 1 mM and protein expression was continued at 20° C. overnight (approximately 16 h). The cells were collected by centrifugation at 4° C., 10,000 rpm for 20 min and the pellets were frozen at −80° C. […]
The clarified bacterial lysates were loaded on a PROTINO-1000 Ni-IDA column (Macherey-Nagel) allowing adsorption of 6-His tag proteins. […] Protein was quantified by the Bradford method. […]
The gas present above the reactions was collected with a syringe equipped with a no-return mechanism. The gas sample was analyzed by gas chromatography (GC) coupled with mass spectrometry (MS). […]

[5] = Conversion of HIV to isobutylene (IBN) by purified enzyme SEQ ID NO: 6, GC measurement; assay type: biochemical, Picrophilus torridus
Description: The recombinant enzyme was purified as described in example 4.
The activity of the isolated enzyme was confirmed. The reaction was carried out in the following conditions:
After 72 h incubation at 30° C., the signal was measured by GC/MS. In the presence of the enzyme, IBN production was increased here by approximately 2.3-fold over background noise. The background noise observed here is in agreement with the organic chemistry literature, showing that in aqueous solution and at a temperature of around 100° C., 3-hydroxyisovaleric acid slowly decarboxylates to tert-butanol, which is partially dehydrated to isobutylene, following an equilibrium favorable to the formation of tert-butanol (Pressman and Luca, J. Am. Chem. Soc. 1940).
Enzymatic Activity According to Temperature
as §1
Incubation 72 h at different temperatures.
as §2
Optimal conditions were obtained with a pH of 5.5 in 100 mM citrate.
Optimization of Reaction Conditions
Optimum reaction conditions were sought, and the following conditions were retained:
Incubation 48 h at 50° C.

Molecule: Nc1ncnc2c1ncn2[C@@H]1O[C@H](COP(=O)(O)OP(=O)(O)OP(=O)(O)O)[C@@H](O)[C@H]1O [ATP]
- enzyme activity (IBN production) in presence and absence of ATP ([1]; 0 or 10 mM ATP, 100 mM citrate pH 5.5, 200 mM HIV): only observed in the presence

Molecule: CCOP(=O)(O)OP(=O)(O)O [ethyl diphosphate, reference compound]
- amount of isobutylene produced over time with cofactor ([2]; 10 μl of 10 mg/l ethyl diphosphate added to 3-hydroxy-3-methylbutyrate reaction): markedly higher

Molecule: CC(C)(O)CC(=O)O [HIV, 3-hydroxy-3-methylbutyrate]
- Km [3]: ~40 mM
- reaction of the enzyme preparation (CO2 detected by gas chromatography) ([2]; vial 6, 5 mM ATP, 10 mM MgCl2, 37° C., 4 hours to 3 days): significant reaction

Molecule: [Mg+2] [Mg^2+]
- enzyme activity (IBN production) in presence and absence of Mg2+ ([1]; 0 or 5 mM MgCl2, 100 mM citrate pH 5.5, 10 mM ATP, 200 mM HIV): improved

B1: Candidate 10: purified decarboxylase enzyme of SEQ ID NO: 6 from Picrophilus torridus, Q6KZB1, N-terminal His tag (protein)
chain: T1 sequence (Q6KZB1 1-324)
modifications: N-terminal His tag
- level of isobutylene (IBN) production in library screening [4]: highest levels
- IBN production in presence of enzyme over background noise ([5]; 100 mM Tris-HCl, 10 mM MgCl2, 10 mM ATP, 20 mM KCl, pH 6.0, 3 mg/ml enzyme, 72 h at 30° C., GC/MS): approximately 2.3 fold
- temperature optimum of enzymatic activity ([5]; 100 mM buffer, 50 mM KCl, 10 mM ATP, 200 mM HIV, 1 mg/ml enzyme, 72 h at different temperatures): approximately 50 °C
- optimal pH of enzymatic activity ([5]; 100 mM citrate, 50 mM KCl, 10 mM ATP, 200 mM HIV, 1 mg/ml enzyme, 72 h at 30° C.): 5.5
- signal-to-noise ratio (measured in the absence of enzyme) for the conversion yield ([5]; in some conditions, example 5): approximately 100 fold
- ratio of the signal over background noise ([5]; optimized: 100 mM citrate, 50 mM KCl, 40 mM ATP, 200 mM HIV, 1 mg/ml enzyme, 48 h at 50° C., GC-FID): approximately 100
